How the values were obtained:
[1] = molecular target: KSHV gH/gL glycoprotein complex (gH-V5/gL-Flag), wild type (Kaposi's sarcoma-associated herpesvirus (KSHV)) (UniProt F5HAK9)
[2] = molecular target: RRV gH/gL glycoprotein complex (gH-V5/gL-Flag), wild type (rhesus monkey rhadinovirus (RRV))

Chain of UniProt F5HAK9 (F5HAK9 whole entry, looked up, one chain of several): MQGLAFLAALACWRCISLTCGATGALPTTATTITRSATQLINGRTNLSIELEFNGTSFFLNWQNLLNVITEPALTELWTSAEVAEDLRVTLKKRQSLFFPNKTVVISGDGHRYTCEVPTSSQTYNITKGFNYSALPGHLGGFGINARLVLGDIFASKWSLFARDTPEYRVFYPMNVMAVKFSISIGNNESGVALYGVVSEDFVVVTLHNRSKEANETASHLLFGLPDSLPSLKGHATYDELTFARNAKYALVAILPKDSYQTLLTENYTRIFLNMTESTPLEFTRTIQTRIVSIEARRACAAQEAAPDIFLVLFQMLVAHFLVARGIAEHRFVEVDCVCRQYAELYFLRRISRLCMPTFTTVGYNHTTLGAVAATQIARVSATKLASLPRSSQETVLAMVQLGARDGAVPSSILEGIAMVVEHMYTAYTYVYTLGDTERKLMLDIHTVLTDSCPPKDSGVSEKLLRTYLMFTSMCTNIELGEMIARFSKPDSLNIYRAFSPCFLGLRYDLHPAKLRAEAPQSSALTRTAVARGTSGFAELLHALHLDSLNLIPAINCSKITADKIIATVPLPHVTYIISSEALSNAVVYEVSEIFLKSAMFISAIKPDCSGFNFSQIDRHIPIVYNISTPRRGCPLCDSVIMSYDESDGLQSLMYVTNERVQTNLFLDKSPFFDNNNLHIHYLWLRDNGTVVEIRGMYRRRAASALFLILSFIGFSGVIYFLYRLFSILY

Molecule: soluble EphA2-Fc fusion construct comprising amino acids 25–534 of human EphA2 (from UniProt P29317-1 25-534)
- inhibition of KSHV wt infection of SLK cells (GFP, flow cytometry) after pre-incubation of the virus with soluble EphA2-Fc, dose series; gH/gL on virions [1]: 90%

B1: Recombinant, human, soluble EphB3-Fc (Fc fusion)
chain: GCRALEETLMDTKWVTSELAWTSHPESGWEEVSGYDEAMNPIRTYQVCNVRESSQNNWLRTGFIWRRDVQRVYVELKFTVRDCNSIPNIPGSCKETFNLFYYEADSDVASASSPFWMENPYVKVDTIAPDESFSRLDAGRVNTKVRSFGPLSKAGFYLAFQDQGACMSLISVRAFYKKCASTTAGFALFPETLTGAEPTSLVIAPGTCIPNAVEVSVPLKLYCNGDGEWMVPVGACTCATGHEPAAKESQCRPCPPGSYKAKQGEGPCLPCPPNSRTTSPAASICTCHNNFYRADSDSADSACTTVPSPPRGVISNVNETSLILEWSEPRDLGGRDDLLYNVICKKCHGAGGASACSRCDDNVEFVPRQLGLTERRVHISHLLAHTRYTFEVQAVNGVSGKSPLPPRYAAVNITTNQAAPSEVPTLRLHSSSGSSLTLSWAPPERPNGVILDYEMKYFEKSEGIASTVTSQMNSVQLDGLRPDARYVVQVRARTVAGYGQYSRPAEFETTSERGSGAQQLQEQLPL
- inhibition of RRV 26–95 wt infection of SLK cells (YFP, flow cytometry) after pre-incubation of the virus with soluble EphB3-Fc, dose series; gH/gL on virions [2]: 80%
